This data set can be described thus: Single-dose tolerated dose (MTD), tail vein. The class given is in vivo, BALB/c mice. As to the method: EDC M53-PEG24-CEN09-106 preparations with drug loading of 2, 5 or 9 drugs per antibody were administered to BALB/c mice (Harlan Laboratories, n=1) in a single dose of 25, 50, 100 and 200 mg/kg via the tail vein to determine single-dose MTDs. Mice were monitored daily for 24 days, and both weight and clinical observations were recorded (weight measured at least twice a week and evaluation for overt signs of toxicity conducted at least twice a day).

The term MTD denotes the highest dose tested that stayed within the study's limit of toxicity. A low value points to poorer tolerability.

B1: M53-PEG24-CEN09-106: Class 1 EDC: antibody M53 conjugated to linker-ready agent PEG24-CEN09-106 (scillarenin, 4-amino-xyloside, PEG24) (conjugate)
heavy: EVQLVESGGGLVQPKGTLKLSCAASGFSFNTHAMNWVRQAPGKSLEWVARTMSKSNNYATYYADSVKDRFIIRADDSQSMLYLQMNNLKTEDTAMYYCVRDDPKRGMDYWGQGTSVTVSSAKTTPPSVYPLAPGSAAQTNSMVTLGCLVKGYFPEPVTVTWNSGSLSSGVHTFPAVLQSDLYTLSSSVTVPSSTWPSETVTCNVAHPASSTKVDKKIE
light: GIVMSQSPSSLAVSVGEKVTMSCKPSQSLLYSRNQKIYLAWYQQKPGQSPKLLIYWASTRESGVPDRFTGSGSGTDFTLIISSVRAEDLAVYYCQQYYNYPLTFGAGTKLELKRADAAPTVSIFPPSSEQLTSGGASVVCFLNNFYPKDINVKWKIDGSERQNGVLNSWTDQDSKDSTYSMSSTLTLTKDEYERHNSYTCEATHKTSTSPIVKSFNR
Take B1: the clinical observations entry by setting is: (drug loading of 2, 200 mg/kg) “limb weakness at day 1 but recovered by day 3”; (drug loading of 5, 100 mg/kg) “slight limpness and closed front limbs but recovered by day 3”; (drug loading of 5, 200 mg/kg) “limpness and closed front limbs and weakness at days 1 and 2”; (drug loading of 5, 25 and 50 mg/kg) “no signs of toxicity or weight loss”; (drug loading of 9, 25 mg/kg) “no signs of toxicity or weight loss”; (drug loading of 9, 50 mg/kg) “slight limpness on day 2 but recovered by day 3”. In addition, the clinical observations entry (drug loading of 9, 100 and 200 mg/kg) is “limpness, closed front limbs and weakness by day 1 which continued through day 2”. For the same molecule, the “loss in body weight” value (drug loading of 2, 200 mg/kg) was found to be 25%. Also, the maximum tolerated dose (MTD) (drug loading of 2, single dose tail vein, BALB/c mice) was > 100 mg/kg. Besides, the weight loss runs as follows: (drug loading of 5, 100 mg/kg) 27%; (drug loading of 9, 50 mg/kg, by day 5) 30%.
